Source: patent US20230045284

T1: GST-Rit2, Q99578
T1 chain: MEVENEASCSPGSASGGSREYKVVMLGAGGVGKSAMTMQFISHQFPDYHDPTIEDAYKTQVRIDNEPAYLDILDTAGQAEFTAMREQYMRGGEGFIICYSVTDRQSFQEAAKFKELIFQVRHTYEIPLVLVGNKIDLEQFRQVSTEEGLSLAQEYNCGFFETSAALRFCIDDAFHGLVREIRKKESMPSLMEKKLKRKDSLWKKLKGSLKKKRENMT


Experiments:
[1] = target: GST-HRas (rGST-HRas), P01112
GST-Rit2, Q99578 = target: T1, GST-Rit2, Q99578
[2] = target: Recombinant 6xHis-tagged HRas (rHRas; NP_001123914.1), P01112
[3] = target: Recombinant 6xHis-tagged KRas (rKRas; KRas4B NP_004976.2), P01116
[4] = target: Recombinant 6xHis-tagged NRas (rNRas; NP_002515.1), P01111
Recombinant 6xHis-tagged NRas (rNRas; NP_002515.1), P01111, sequence (P01111 whole entry): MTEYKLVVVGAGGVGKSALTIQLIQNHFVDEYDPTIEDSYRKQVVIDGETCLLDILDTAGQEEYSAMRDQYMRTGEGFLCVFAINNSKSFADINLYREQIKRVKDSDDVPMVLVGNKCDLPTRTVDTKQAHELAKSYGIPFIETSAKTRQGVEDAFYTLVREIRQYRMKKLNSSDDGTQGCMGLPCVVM

Recombinant 6xHis-tagged HRas (rHRas; NP_001123914.1), P01112, sequence (P01112 whole entry, looked up): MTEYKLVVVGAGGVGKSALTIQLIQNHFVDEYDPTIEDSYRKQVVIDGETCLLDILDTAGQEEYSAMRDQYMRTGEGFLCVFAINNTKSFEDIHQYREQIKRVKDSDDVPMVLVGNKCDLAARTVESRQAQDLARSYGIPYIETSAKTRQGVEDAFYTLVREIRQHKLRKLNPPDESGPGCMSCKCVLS
GST-HRas (rGST-HRas), P01112, sequence (P01112 whole entry, looked up): as above

Protein | in vitro cleavage of rGST-GTPase, SDS-PAGE [1] | in-vitro cleavage of GST-fusion GTPases (GST-Rit2, Q99578) | in vitro endopeptidase assay, SDS-PAGE [2] | in vitro cleavage with varying concentrations of EDTA, equimolar 10 µM, 30 minutes at 37 C [3] | in vitro cleavage with varying concentrations of phenanthroline, equimolar 10 µM, 30 minutes at 37 C [3] | in vitro endopeptidase assay, SDS-PAGE [3] | in-vitro cleavage reaction of purified proteins [3] | in vitro endopeptidase assay, SDS-PAGE [4] | in vitro cleavage, SDS-PAGE [3]
Recombinant 6xHis-tagged DUF5Vv (rDUF5Vv; V. vulnificus CMCP6 MARTXVv Q3596-L4089) (protein) QELKERAKVFAKPIGASYQGILDQLDLVHQAKGRDQIAASFELNKKINDYIAEHPTSGRNQALTQLKEQVTSALFIGKMQVAQAGIDAIAQTRPELAARIFMVAIEEANGKHVGLTDMMVRWANEDPYLAPKHGYKGETPSDLGFDAKYHVDLGEHYADFKQWLETSQSNGLLSKATLDESTKTVHLGYSYQELQDLTGAESVQMAFYFLKEAAKKADPISGDSAEMILLKKFADQSYLSQLDSDRMDQIEGIYRSSHETDIDAWDRRYSGTGYDELTNKLASATGVDEQLAVLLDDRKGLLIGEVHGSDVNGLRFVNEQMDALKKQGVTVIGLEHLRSDLAQPLIDRYLATGVMSSELSAMLKTKHLDVTLFENARANGMRIVALDANSSARPNVQGTEHGLMYRAGAANNIAVEVLQNLPDGEKFVAIYGKAHLQSHKGIEGFVPGITHRLDLPALKVSDSNQFTVEQDDVSLRVVYDDVANKPKITFKGSL | DUF5Vv could cleave only HRas | Rit2 was not cleaved at all | showed the cleavage of rKRas, rHRas, and rNRas by rDUF5Vv | Cleavage was still observed | Cleavage was still observed | showed the cleavage of rKRas, rHRas, and rNRas by rDUF5Vv | rKRas was efficiently cleaved within 10 min in a concentration-dependent manner | The cleavage of rNRas was less efficient compared to rKRas and rHRas | –
Recombinant 6xHis-tagged DUF5Ah (A. hydrophila ATCC7966 MARTXAh P3069-V3570) (protein) PGKTGVTERTARLFADVYSPDELKKAAQVFAKPIGESYQQILDQLATLHGASGQAKVEAALRLNNLIDDYLVKHEGSGRNPALSKLQSQLHGNLYRGELASLQAEVTALAKTRPDLAAIVIGKAAEEAQGQHPGLTQMVLRWAAQDPYLAAKAGYQGVVPADLPFDARFHIALGEQHDDLKKWLTEAQGKGLLNRAVLDDTRKVLHLGYSYQELQDMTGEQSAQMAVYFIKEAAKQAAPGSELSAELIMLDKFGDRRYLGELESRRIAQIENIYHSSKQTDVAAWDARYGGDALRTLNNQLDGESTLAGQLSRLLDNRNGLLIGETHGSDVNGLRFVNEQMDALKIQGVTVIALEHLRSELAQPLIDRYLAGGEMSPELTSMLKNKHLEPSLFERARERGMRIVALDDGSTARPAIAGTEHGLMYRAGAANNVAVEVLGKLPAGEKFVAIYGSAHLGSHKGIEGFVPGITHRLGLPALKVDADNRFHLQADDVSQRVEYADVGRKWTPVAAL | – | – | – | – | – | – | – | – | The recombinant protein rDUF5Ah was able to cleave rKRas in the in vitro reaction
Recombinant 6xHis-tagged DUF5Pa (P. asymbiotica ATCC43949 hypothetical protein, P41-V532) (protein) MVFEHDKTVERKRKPSIQLGNDKEKSSEQALELPQSKQNNPLLHDLITSNNLRKEAAVFAKQIGPSYQGILDGLEHLHNLSGNEQLTAGFELHRRITRYLEEHPDSKRNAALRRTQTQLGDLMFTGTLQEVRHPLLEMAETRPAMASQIYQIARDEAKGNTPGLTDLMVRWVKEDPYLAAKSGYQGKIPNDLPFEPKFHVELGDQFGEFKTWLDTAQNQGLLTHTRLDEQNKQVHLGYSYNELLDMTGGVESVKMAVYFLKEAAKQAEPGSAKSQEAILLNRFANPAYLTQLEQGRLAQMEAIYHSSHNTDVAAWDQQFSPDALTQFNHQLDNSVDLNSQLSFLLKDRQGLLIGESHGSDLNGLRFVEEQMDALKAHGVTVIGLEHLRSDLAQPLIDKFLTSENEPMPAELAAMLKTKHLSVNLFEQARSKQMKIIALDNNSTTRPAEGEHSLMYRAGAANNVAVERLQQLPAEEKFVAIYGNAHLQSHEGIDHFLPGITHRLGLPALKVDENNRFTAQADNINQRKCYDDVVEVSRIQLTS | – | – | – | – | – | – | – | – | shown to also cleave rKRas
